{"source": "patent US20100196361A1", "about": "“Method of inhibition of vascular development using an antibody” (DYAX CORP., priority 2003, published 2010)", "molecules": {"B1": {"name": "E3: human anti-Tie1 antibody from phage Fab library, reformatted as IgG; HC variable SEQ ID NO:114, LC variable SEQ ID NO:116 (antibody, V domains shown)", "VH": "EVQLLESGGGLVQPGGSLRLSCAASGFTFSMYGMVWVRQAPGKGLEWVSVISPSGGNTGYADSVKGRFTISRDNSKNTLYLQVNSLRAEDTAVYYCARAPRGYSYGYYYWGQGTLVTVSSASTKGPSVFPLAPSSKSTSGG", "VL": "DIQMTQSPLSLSASVGDRVTITCRASQGIGHYLAWYQQKPGKVPKLLIYTASTLQSGVPSRFSGSGSGTDFTLTINSLQPEDVATYYCQQFNSYPHTFGQGTRLDIK", "modifications": "IgG constant regions; Synthetically generated peptide"}}, "key": {"Tie1 [1]": {"tested_on": "Tie1", "assay": "Immunohistochemistry of mouse xenograft tumor sections (SW480)", "format": "binding", "details": "biotinylated antibody 10 μg/ml, formalin-fixed paraffin sections", "method": "We determined if antibody E3 binds to mouse endothelial cells in mouse xenographs. Immunohistochemistry was performed with biotinylated E3 IgG1 (a,z allotype) antibody and control antibodies anti-CD31 (endothelial cell specific marker) and anti-PCNA (proliferating cell nuclear antigen). Formalin-fixed tumor tissues from a mouse-xenograph containing SW480 cells (ATCC) were tested for the binding pattern of the human anti-Tie1 antibody E3. 5 μm sections of paraffin embedded tissues were deparaffinized, rehydrated and pretreated with warm the citrate buffer (0.01 M sodium citrate, pH6 at 95° C.) for 45 min. The slides were cooled down in fresh citrate buffer for 20 min and rinsed with distilled water. The slides were hydrogen peroxide treated, (0.3% H2O2 in PBS), and preincubated with PBS, 5% FCS, 5% heat inactivated human serum (HS) for 1 hour. Between antibody incubations slides were washed 3 times 5 minutes in PBS. Biotinylated antibodies E3 and A2-SV were diluted to a concentration of 10 μg/ml in PBS, 10% HS and incubated for 1 hour at RT. Slides were then incubated with an avidin-HRP (Dako) for 30 minutes at room temperature. Staining was detected by AEC (Vector Laboratories, Burlingame) and H2O2. The peroxidase reaction was stopped with water and slides were counter-stained with haematoxylin. The tissues were evaluated for their binding reactivity."}, "Tie1 [2]": {"molecular_target": "Tie1 (Homo sapiens, UniProt P35590)", "sequence (P35590 22-1138)": "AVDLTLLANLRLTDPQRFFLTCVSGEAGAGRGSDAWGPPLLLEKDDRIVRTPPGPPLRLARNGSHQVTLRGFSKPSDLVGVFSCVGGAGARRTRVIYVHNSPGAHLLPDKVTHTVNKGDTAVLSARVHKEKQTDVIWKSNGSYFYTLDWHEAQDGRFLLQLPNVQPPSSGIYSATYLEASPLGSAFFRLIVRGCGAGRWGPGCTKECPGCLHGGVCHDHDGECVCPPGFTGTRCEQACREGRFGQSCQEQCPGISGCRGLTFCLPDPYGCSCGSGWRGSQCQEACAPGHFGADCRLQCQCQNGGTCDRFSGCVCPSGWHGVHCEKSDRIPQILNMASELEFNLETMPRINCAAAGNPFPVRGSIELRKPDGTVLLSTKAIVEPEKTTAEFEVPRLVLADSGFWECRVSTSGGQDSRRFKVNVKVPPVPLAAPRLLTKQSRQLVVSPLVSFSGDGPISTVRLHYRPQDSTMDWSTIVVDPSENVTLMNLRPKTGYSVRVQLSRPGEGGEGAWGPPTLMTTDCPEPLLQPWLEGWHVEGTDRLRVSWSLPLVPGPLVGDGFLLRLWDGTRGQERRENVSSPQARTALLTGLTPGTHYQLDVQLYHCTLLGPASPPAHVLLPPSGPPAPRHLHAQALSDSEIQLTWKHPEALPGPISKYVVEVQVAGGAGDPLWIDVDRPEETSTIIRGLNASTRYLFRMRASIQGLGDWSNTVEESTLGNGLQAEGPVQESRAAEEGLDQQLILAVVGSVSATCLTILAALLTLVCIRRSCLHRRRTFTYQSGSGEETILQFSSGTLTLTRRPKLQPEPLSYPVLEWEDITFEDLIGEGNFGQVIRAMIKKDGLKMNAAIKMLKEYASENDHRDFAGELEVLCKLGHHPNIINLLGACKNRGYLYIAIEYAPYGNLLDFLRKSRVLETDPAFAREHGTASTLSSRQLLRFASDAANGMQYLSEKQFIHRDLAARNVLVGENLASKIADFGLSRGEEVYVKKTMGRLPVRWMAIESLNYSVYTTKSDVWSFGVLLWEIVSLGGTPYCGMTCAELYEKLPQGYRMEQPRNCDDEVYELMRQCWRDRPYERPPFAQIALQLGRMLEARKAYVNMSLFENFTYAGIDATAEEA", "assay": "Tie1 phosphorylation assay", "format": "cell-based", "design": "an expression vector containing a V5-tagged full length Tie1 cDNA; expressed in transfected cells; host or cells: COS1", "method": "Tie1 phosphorylation assay. COS1 cells were transfected with pcDNA3-Tie1-V5. After 24 h of transfection, the cells were serum starved for 8 h and then treated with E3 IgG. For the Tie1 phosphorylation assay, HDMVECs were cultured on 10 cm dishes to near confluence, starved (8-16 h) in serum free medium and stimulated as indicated. After the stimulations, the cells were lysed in lysis buffer (RIPA-DOC: 50 mM Tris-HCl pH 8.0, 150 mM NaCl, 1% Triton-X-100, 0.1% SDS, 0.5% DOC, 10 mM EDTA, supplemented with aprotinin, leupeptin, PMSF and sodium vanadate). Clarified lysates from transfected COS 1 cells or HDMVECs were immunoprecipitated with anti-V5 or anti-Tie1 B9, respectively. Proteins were separated by SDS-PAGE, transferred to nitrocellulose and immunoblotted using the anti-phosphotyrosine and anti-Tie1 (R&D systems) antibodies.\nTo test if the E3 IgG binding to the extracellular region of Tie1 induces autophosphorylation of Tie1, the Tie1 receptor phosphorylation level in response to E3 IgG treatment was studied in transiently transfected COS 1 cells and human primary endothelial cells. COS 1 cells were transfected with an expression vector containing a V5-tagged full length Tie1 cDNA, and, after serum starvation, the cells were treated with E3 IgG (200 ng/ml). Cell lysates were extracted at several time points and Tie1 was immunoprecipitated with anti-V5 followed by western blotting using anti-phosphotyrosine and anti-Tie1 antibodies. […] To determine if E3 IgG induces Tie1 phosphorylation in primary endothelial cells, HDMVEC cells were serum starved and stimulated with several concentrations of E3 for 60 min. […] Also higher concentrations of E3 (500-1000 ng/ml) induced Tie1 phosphorylation but the response was more rapid and was most prominent after 5 min of stimulation.\nTo study the kinetics of E3 IgG induced Tie1 activation, cells were stimulated with E3 IgG (200 ng/ml) and receptor phosphorylation was studied at various time points. Tie1 phosphorylation was highest 15-30 min after E3 IgG treatment but phosphorylation persisted for up to 1 h."}, "human platelets": {"tested_on": "human platelets", "assay": "Flow cytometry on human platelets", "format": "binding", "details": "total (CD42) and thrombin-activated (CD62) platelets", "method": "To avoid platelet activation, human platelets were isolated from plasma of healthy donors using the platelet GelSep kit (Biocytex, Marseille, France) kit according to the guidelines of the manufacturer. Platelets were activated by the addition of thrombin to a final concentration of 0.8 U/ml. To distinguish activated from non-activated platelets double staining was performed with Tie1 antibodies/control antibodies and antibody CD42 (total platelets) or CD62 (activated platelets).\nAfter preparation, platelets were resuspended in buffer 2 of the GelSep kit, 10% heat inactivated human serum (incubation buffer) and incubated for 1 hour. […] Platelets were spun down by centrifugation for 10 min at 611 g. Between incubations platelets were washed twice with Buffer 1 of the GelSep kit. Then, Strepatvidin-R-phycoerythrin together with anti-CD42-PercP or anti-CD62-PercP were incubated for 30 minutes at room temperature in incubation buffer After the last incubation and washing detection of bound antibodies was performed by means of flow cytometry on a FACSscan and Epics Altra (Becton Dickinson, Oxnard, Coulter,) and results analyzed. Cells were gated on SSC and anti-CD42-PercP for the total platelets in case non-activated platelets were used and on SSC and anti-CD62-PercP for the activated platelets. […]"}}, "note": "Entries after “also recorded” stand apart in the source; their conditions may differ.", "data": [{"molecule": "B1", "values": [{"measurement": "staining pattern in SW480 mouse xenograft sections", "setting": "Tie1 [1]", "value": "consistent with staining of mouse endothelial cell Tie1"}, {"measurement": "persistence of Tie1 phosphorylation", "setting": "Tie1 [2]; 200 ng/ml", "value": "up to 1 h"}, {"measurement": "time of highest Tie1 phosphorylation", "setting": "Tie1 [2]; 200 ng/ml", "value": "15 to 30", "unit": "min"}, {"measurement": "concentration giving receptor phosphorylation", "setting": "Tie1 [2]; HDMVEC, serum starved, 60 min stimulation", "value": "50 to 200", "unit": "ng/mL"}, {"measurement": "time of most prominent Tie1 phosphorylation", "setting": "Tie1 [2]; HDMVEC, 500-1000 ng/ml", "value": 5, "unit": "min"}, {"measurement": "binding to platelets", "setting": "human platelets", "value": "Only a background number of CD42 positive cells are labeled; also recorded: no significant binding to total platelets, nor to activated platelets"}, {"measurement": "binding to platelets", "setting": "human platelets; listed as DX-2200", "value": "did not show significant binding to platelets"}]}]}
